Changes are numbered by the printed parent chain. Blank lines part the entries; values can stand above or below the molecule they belong to.
Columns and labels:
biotinylated CRH = target: T1, biotinylated CRH (Homo sapiens, UniProt P06850); test: Affinity determination with Octet; assay type: binding
T1 construct: purchased GL Biochem 784751
T1 sequence (P06850 154-194): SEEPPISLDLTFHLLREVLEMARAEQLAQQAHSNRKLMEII
Method: Octet® Red 96e was used for affinity measurement. Octet® running buffer was prepared by diluting kinetics buffer 10× (Fortebio, Cat #18-1105) in PBS according to the manufacturer's instructions. Two columns of SA sensors (Fortebio, Cat #18-5019) were hydrated in running buffer for 10 mins, one for ligand capturing and the other for reference. Antibodies were 2-fold diluted and added into a 96-well plate. 30 nM biotinylated CRH (GL Biochem, Cat #784751) was captured by the first column of SA sensors for 20 seconds, while reference sensors were dipped into buffer wells. After a 60-second baseline step, sensors were dipped into analyte and buffer wells successively, with the association and dissociation time of 180 seconds and 800 seconds, respectively. Sensors were regenerated in glycine pH1.5 (Cytiva, Cat #BR-1003-54) before the next cycle. […] Signals of reference wells and reference sensors were subtracted by selecting “Double reference” before data fitting.

human CRHR2 = test: CRH-induced luciferase reporter blocking assay, CHO-CRE-hCRHR2 cells; assay type: cell-based
Method: (§1) To create CHO-CRE-hCRHR1, -hCRHR2, -mCRHR1, and -mCRHR2 reporter cell lines, pcDNA3.1-hCRHR1, -hCRHR2, -mCRHR1, and -mCRHR2 were introduced into CHO-CRE cells established above by electroporation as described above. Selection antibiotics hygromycin at 500 μg/ml and G418 at 1,000 μg/ml were employed. Individual established stable cell lines were characterized by both CRH and forskolin stimulation.
Activated GPCR proteins increase production of the intracellular cAMP. CHO-CRE-human CRHR1 stable clone 11 was generated by introduction of pcDNA3.1-human CRHR1 under the selection of G418 and hygromycin. Human CRHR1 expression in CHO-CRE-hCRHR1 Clone 11 was confirmed by flow cytometry (data not shown). To further validate that the cell line was functional, CHO-CRE-hCRHR1 Clone 11 cells were treated with forskolin and CRH peptide. […] Subsequently CHO-CRE-hCRHR2 Clone 32, -mCRHR1 Clone 22, and -mCRHR2 Clone 8 cell lines were established using similar methodology and validated with CRH treatment (data not shown).
Blocking CRHR1 by small molecules or neutralization of CRH peptide can reduce luciferase expression if the CRH-CRHR1 system works in CHO-CRE-hCRHR1 cells. Antalarmin, a small molecule CRHR1 antagonist, blocked CRH-mediated luciferase expression in CHO-CRE-hCRHR1 Clone 11 (data not shown). Furthermore, sheep anti-CRH polyclonal antibody reduced CRH-mediated luciferase expression in these cells (data not shown). Likewise, sheep anti-CRH polyclonal antibody blocked CRH-mediated luciferase expression in CHO-CRE-hCRHR2, CHO-CRE-mCRHR1, and CHO-CRE-mCRHR2 cells (data not shown).
(§2) Cells were digested by trypsin-EDTA (Life technologies, Cat #:12604-013), centrifuged at 1,000 rpm for 5 min, resuspended in growth medium, counted using a cell counter, seeded at a concentration of 5,000 cells per 100 μl in 96-well flat plates, and incubated overnight. 50 μl of 4× serially diluted antibodies was added (8 points, 1/4 diluted by growth medium) to plates containing CHO-CRE-hCRHR1 cells, and 50 μl of 4×CRH (4× is 2 nM, final is 0.5 nM) was added. Similarly, 4×CRH (4× is 0.4 nM, final is 0.1 nM) was added to CHO-CRE-hCRHR2 cells and CHO-CRE-mCRHR1 cells, and 4×CRH (4× is 20 nM, final is 5 nM) was added to CHO-CRE-mCRHR2 cells. Next, plates were incubated 4-6 hours at 37° C. in a CO2 incubator. 60 μl of culture medium was removed, to which was added 60 μl of Bio-Glo luciferase, followed by incubation for 10 min at RT. Plates were read in a luciferase plate reader (EnVision, PerkinElmer).

mouse CRHR2 = test: CRH-induced luciferase reporter blocking assay, CHO-CRE-mCRHR2 cells; assay type: cell-based
Method: as §1, with “stimulation. […]” for “stimulation.”
as §2

[1] = CHO-CRE-hCRHR2 cells, 0.1 nM CRH

B1: PR302309: Series 7 anti-CRH mAb from immunized wildtype mice; VH SEQ ID NO: 260, VL SEQ ID NO: 317 (antibody, V domains shown)
VH: QIQLVQSGPELKKPGETVKISCKASGYTFTNYGMNWVKQAPGKVLKWMGWINTYTGEPIYTDDFKGRFAFSLETSASTAYLQINNLKNEDTATYFCSRSTMITTGGVFAYWGQGTLVTVSA
VL: DVLMAQTPLSLPVSLGDQASISCRSSQTIVHSDGNTYLEWYLQKPGQSPKLLIYKVSNRFSGVPDRFSGSGSGTDFTLKISRVEAEDLGVYYCFQGSHVPWTFGGGTKLEIK
modifications: PR302309-1 VH, PR302309-2 VH, PR302309-3 VH, PR302309-4 VH,PR302309-5 VH, PR302309-6 VH, PR302309 VH; PR302309-13 VL, PR302309-14 VL, PR302309-15 VL, PR302309-16 VL,PR302309 VL
kdis (biotinylated CRH): 4.03e-06 s⁻¹
kon (biotinylated CRH): 263000 M⁻¹ s⁻¹

B2: PR302334-11: humanized variant of Series 9 mAb PR302334; VH SEQ ID NO: 273, VL SEQ ID NO: 329 (antibody, V domains shown)
VH: EVQLVESGGGLVQPGGSLRLSCAASGFTFSTYAMSWVRQAPGKGLEWVASIRSGGTTYYPDSVKGRFTISRDNSKNTLYLQMNSLRAEDTAVYYCTRGIDWGQGTTVTVSS
VL: DIQMTQSSLSASVSLGDRVTITCKASQSVNNDVAWYQQKPGKAPRLLIYYASNRYTGVPSRFSGSGSGTDFTFTISSLQPEDIATYYCQQDYSSWTFGGGTKVEIK
modifications: PR302334-10 VH, PR302334-11 VH, PR302334-12 VH, PR302334-14 VH,PR302334-7 VH, PR302334-8 VH, PR302334-9 VH; PR302334-11 VL, PR302334-5 VL
kdis (biotinylated CRH): <1e-07 s⁻¹
kon (biotinylated CRH): 684000 M⁻¹ s⁻¹

B4: PR302341-20: humanized variant of Series 10 mAb PR302341; VH SEQ ID NO: 283, VL SEQ ID NO: 340 (antibody, V domains shown)
VH: QVQLVQSGAEVKKPGASVKVSCKASGYTFTDYFMKWVRQAPGQRLEWMGVINPNNGDIFYNQKFKGRVTITRDTSASTAYMELSSLRSEDTAVYYCARGTDRALFAYWGQGTLVTVSS
VL: DVVMTQSPLSLPVTLGQPASISCRSGQSIVHSDGNTYLEWYQQRPGQSPRLLIYKVSNRFSGVPDRFSGSGSGTDFTLKISRVEAEDLGVYYCFQGSHIPWTFGGGTKVEIK
modifications: PR302341-15 VH, PR302341-20 VH, PR302341-70 VH, PR302341-71 VH,PR302341-72 VH; PR302341-19 VL, PR302341-20 VL, PR302341-21 VL, PR302341-22 VL,PR302341-23 VL, PR302341-28 VL, PR302341-29 VL, PR302341-2 VL,PR302341-41 VL, PR302341-55 VL, PR302341-56 VL, PR302341-57 VL,PR302341-
IC50 (human CRHR2; [1]): 0.263 nM
IC50 (human CRHR2; Table 9, hCRHR2): 1.21 nM
IC50 (mouse CRHR2; CHO-CRE-mCRHR2 cells, 5 nM CRH): 0.602 nM
IC50 (mouse CRHR2; Table 9, mCrhr2): 1.98 nM

B5: PR302341-21: humanized variant of Series 10 mAb PR302341; VH SEQ ID NO: 284, VL SEQ ID NO: 340 (antibody, V domains shown)
VH: B4 VH with R72V, T74K
VL: B4 VL
modifications: PR302341-16 VH, PR302341-21 VH, PR302341-24 VH, PR302341-25 VH; PR302341-19 VL, PR302341-20 VL, PR302341-21 VL, PR302341-22 VL,PR302341-23 VL, PR302341-28 VL, PR302341-29 VL, PR302341-2 VL,PR302341-41 VL, PR302341-55 VL, PR302341-56 VL, PR302341-57 VL,PR302341-
IC50 (human CRHR2; [1]): 0.272 nM
IC50 (mouse CRHR2; CHO-CRE-mCRHR2 cells, 5 nM CRH): 0.633 nM

B6: PR302341-23: humanized variant of Series 10 mAb PR302341; VH SEQ ID NO: 286, VL SEQ ID NO: 340 (antibody, V domains shown)
VH: B4 VH with R44G, I70M, R72V, T74K, A76I, S85R, E89D
VL: B4 VL
modifications: PR302341-18 VH, PR302341-23 VH, PR302341-26 VH, PR302341-27 VH,PR302341-30 VH, PR302341-31 VH, PR302341-42 VH; PR302341-19 VL, PR302341-20 VL, PR302341-21 VL, PR302341-22 VL,PR302341-23 VL, PR302341-28 VL, PR302341-29 VL, PR302341-2 VL,PR302341-41 VL, PR302341-55 VL, PR302341-56 VL, PR302341-57 VL,PR302341-
IC50 (human CRHR2; [1]): 0.127 nM
IC50 (human CRHR2; Table 9, hCRHR2): 1.38 nM
IC50 (mouse CRHR2; CHO-CRE-mCRHR2 cells, 5 nM CRH): 0.501 nM
IC50 (mouse CRHR2; Table 9, mCrhr2): 1.37 nM

The remaining lines, values ahead:

kdis (biotinylated CRH): <1e-07 s⁻¹
kon (biotinylated CRH): 285000 M⁻¹ s⁻¹
B3: PR302334-25: humanized variant of Series 9 mAb PR302334; VH SEQ ID NO: 275, VL SEQ ID NO: 330 (antibody, V domains shown)
VH: B2 VH with Q13K, S74A, T77S
VL: B2 VL with I83L, Y87F
modifications: PR302334-16 VH, PR302334-24 VH, PR302334-25 VH; PR302334-12 VL, PR302334-25 VL, PR302334-27 VL, PR302334-6 VL

IC50 (human CRHR2; [1]): 0.099 nM
IC50 (mouse CRHR2; CHO-CRE-mCRHR2 cells, 5 nM CRH): ~0.457 nM
B7: PR302341-24: humanized variant of Series 10 mAb PR302341; VH SEQ ID NO: 284, VL SEQ ID NO: 336 (antibody, V domains shown)
VH: B4 VH with R72V, T74K
VL: B4 VL with S7T, L11S, S48P, S72A
modifications: PR302341-16 VH, PR302341-21 VH, PR302341-24 VH, PR302341-25 VH; PR302341-10 VL, PR302341-24 VL, PR302341-26 VL, PR302341-43 VL,PR302341-44 VL, PR302341-45 VL, PR302341-4 VL

kdis (biotinylated CRH): <1e-07 s⁻¹
kon (biotinylated CRH): 669000 M⁻¹ s⁻¹
IC50 (human CRHR2; [1]): 0.803 nM
IC50 (mouse CRHR2; CHO-CRE-mCRHR2 cells, 5 nM CRH): 0.995 nM
B8: PR302334: Series 9 anti-CRH mAb from immunized wildtype mice; VH SEQ ID NO: 272, VL SEQ ID NO: 331 (antibody, V domains shown)
VH: EVKLVESGGGLVKPGGSLKLSCAASGFTFSTYAMSWVRQTPEKRLEWVASIRSGGTTYYPDSVKGRFTISRDNARNILYLQMSSLRSEDTAIYYCTRGIDWGQGTLVTVSA
VL: NIVMTQTPKFLLVSAGDRITITCKASQSVNNDVAWYQQKPGQSPKLLIYYASNRYTGVPDRFTGSGYGTDFTFTISTVQAEDLAVYFCQQDYSSWTFGGGTNLEIK
modifications: PR302334-1 VH, PR302334-2 VH, PR302334-3 VH, PR302334-4 VH,PR302334-5 VH, PR302334-6 VH, PR302334 VH; PR302334-14 VL, PR302334-15 VL, PR302334-16 VL, PR302334-17 VL,PR302334-18 VL, PR302334 VL
